In the DeepSol protein solubility set:

Assay: soluble on expression in E. coli; label from the status in PepcDB or PDB records
With “MRGSHHHHHHGSACMKRQGASSERKRARIPSGKAGAANGFLMEVCVDSVESAVNAERGGADRIELCSGLSEGGTTPSMGVLQVVKQSVQIPVFVMIRPRGGDFLYSDREIEVMKADIRLAKLYGADGLVFGALTEDGHIDKELCMSLMAICRPLPVTFHRAFDMVHDPMAALETLLTLGFERVLTSGCDSSALEGLPLIKRLIEQAKGRIVVMPGGGITDRNLQRILEGSGATEFHCSARSTRDSGMKFRNSSVAMGASLSCSEYSLKVTDVTKVRTLNAIAKNILV” the “soluble on expression in E. coli” value was “soluble”.
With “MGSSHHHHHHGGTGENLYFQGGSGRRLPLFCRRPSRCCGATASGSGSSSAAVLAASAAPSVLVLAARGIATSGRVTNEDRRWWLVHLECAPDVTPGTFVSWLDCCGTHTTKKLIERNIWTIEQVAELDSDRVDELKYKEGCLKMDVVWEHARTIITPLKQREVSGGVESQLQSRILELRKKRELERQRELLARERATVSDKREETLRRLRESVAAKKAALRKKLDEQHGEATPAASESASTEAHRGTAEAAVEDEAVGNIVDRMSGGNPPRA” the “soluble on expression in E. coli” value was “not soluble”.
For “GSRPATPPVTPPSREGHVADLDRFPQDLRVYAMKAGADRQLLPFTEQAAQDARWNRRFFAPWRMTRISVPVKDVAAPFGTDGRPRGYAENLLPWDVTRWGALASGAALDLYPSQAWKGIVVSNSALREVPTLRPMFTAPTRAGQGYPFDMFQRTAVWMGTPVFVGHATADRAWLYVETAFAAGWMPAADVARVDDAFMTRYESGSLAAILRDDTSLNGADGTHLATAHIGTVLPLSGASQVGRTVLVPVRAPEGHAVVVPVLLTSGEAAQKPVPLTPGNMAELGNRMMGQPYGWGGLYEDRDCSSTLRDLFTPFGLWLPRNSASQAKAGRYVDIAKLDADDKEARIVAEGVPFMTLLWLRGHITLYLGLHEGQAAMFHNMWGIRTHRGGVEGRYVLGRAVVTSTRPGLDVPGNDNADGLLGRMQGMSILPGGAQ”, the “soluble on expression in E. coli” value was “soluble”.
For “MPPKQQGPSKKSEQKRKEKVIEDKTFGLKNKKGNKNQKFVAQVENQVRNNNTRMDLVRQQEAAKKKEKDELLDIANLLKPVEQKVAKDVDPKSLLCVFFKQGLCGKGAKCKFSHDLAVAQKTAKKNLYADSREVEKDEETNENWDSDKLNEVVNKKNKNKHMIDIVSSFMTDIFKFKKLNFKVCKYFLEAVENNKYGWFWECPNGGEKCQYRHCLPEGYVLKKERKAMEQQKEDEISIEELVEKERAALSSKNLTKLTLQTFIAWKKKKLRERKEKEEADLKEKKEKIKSGKHNGMSGRDLFLYDANLVNNDDDEAGDIEMEKEEVDENEKVFEIDANFFKFDGMDDELTDQMSKSSTAVESTAKGMAKMDINEDLFDIDEDVENLDSDED”, the “soluble on expression in E. coli” value was “soluble”.
In the case of “MAKRILCFGDSLTWGWVPVEDGAPTERFAPDVRWTGVLAQQLGADFEVIEEGLSARTTNIDDPTDPRLNGASYLPSCLATHLPLDLVIIMLGTNDTKAYFRRTPLDIALGMSVLVTQVLTSAGGVGTTYPAPKVLVVSPPPLAPMPHPWFQLIFEGGEQKTTELARVYSALASFMKVPFFDAGSVISTDGVDGIHFTEANNRDLGVALAEQVRSLL”, the “soluble on expression in E. coli” value is reported as “soluble”.
In the case of “MKITGVKAVFYSATGNTEEVVTAIAEKIAEKLGVSMEICNFTLPGGRTEVQTYAPSELVVFGTPVYAGRVPNKMLPVVQNNFKGEGALAVPVVTFGNRNFDNGLIELRNELENNGFHTIAGAGFAVSHVFSDKIAPGRPDEADREIMMRFAEAVAEKVEKMEEIPAPIEVRGEDPVGPYYTPLGTDGKPAVFLKAKPK”, the “soluble on expression in E. coli” value is reported as “not soluble”.
With “MEITNVNEYEAIAKQKLPKMVYDFYASGAEDQWTLAENRNAFSRILFRPRILIDVTNIDMTTTILGFKISMPIMIAPTAMQKMAHPEGEYATARAASAAGTIMTLSSWATSSVEEVASTGPGIRFFQLYVYKDRNVVAQLVRRAERAGFKAIALTVDTPRLGRREADIKNRFVLPPFLTLKNFEGIDLGKMDKANDSGLSSYVAGQIDRSLSWKDVAWLQTITSLPILVKGVITAEDARLAVQHGAAGIIVSNHGARQLDYVPATIMALEEVVKAAQGRIPVFLDGGVRRGTDVFKALALGAAGVFIGRPVVFSLAAEGEAGVKKVLQMMRDEFELTMALSGCRSLKEISRSHIAADWDGPSSRAVARL” the “soluble on expression in E. coli” value was “soluble”.
With “YTRRSIEKMVKTQVDSKVLDEKNKYYEQQLVTMKQTLESQRTVRHDLKNKLSPLIYLAESGKTDELVEQVQELGSLSVLGKIYADSGNITIDYIINLKLQALANKGVTIFCEINVPNDIDVVPFDLSTVLGNLIDNAAEALEYVQNEKWIGIKISYQVGFLMIQVANSFDGIVHLDNKKIISRKEDTENHGIGLTSIKKIAGKYDGEVVVQHDDKQFDVIVKLLA” the “soluble on expression in E. coli” value was “not soluble”.
For “MDIVISGGTGLIGRAITEIQGNTYNVITRGPSRTDGNINLVNWNDLRKIRHCDVVINLAGYNIGSKRWNPKIKEEIIRSRIESTRRMVEFISSLDSKPEAFLSGSAIGYYGYGENTVFDENSPPGTGFLAELANAWEDEALKASRYTRTVILRTSNVLSSSGGFLARIMNSRSRRVYYFGDGDQPVSWIHIKDYVNAVKFLMENKDISGPVNMAAPSPVSFADLAHAIAREKGYKEMKIPEFIGKLILGSEMYRELMSGQRVAPKKLTGSGFSFQYPDLESAIKNLLEHHHHHH”, the “soluble on expression in E. coli” value was “not soluble”.
For “MGSDKIHHHHHHMNTLVDAGFSPRREGFAPQPLIEALLSILPAHCVLHREEDTRPYECDGLSLYRALPAVVALPEDEAQVRAIMQLCKRMNVPIVARGAGTGLSGGAMPHAQGVLLGLSKLNRIKRIDPAGGTAVVEPGVRNLAISEAAAPYGLYYAPDPSSQIACSIGGNVAENSGGVHCLKYGLTVHNVLRVRVVTIDGEIVELGSEAPDAPGLDLLSVFVGSEGMLGVVTEITVKLIPSPACAQVVMASFASVEAAGNAVTQIIAAGLIPAGLEMMDRQAVHMVEPFVQAGYDLQAQAILLCEADGTPQEVAHEVAMMEAVFKRAGATSLQVSGSEAERLRFWAGRKNAFPAAGRVSPDYYCMDGTIPRRHLARVLGAIEQMEDDFGLRCANVFHAGDGNLHPLILFDSNKPDEVERAEKFGAAILELCVQVGGTVTGEHGVGMEKINQMCVQFSRDELDAFLAVKRAFDPPGLLNPEKVIPTLARCAEYGKMHVHAGEMRFPDLARF”, the “soluble on expression in E. coli” value was “not soluble”.
In the case of “AGYPPASPSNLSCLMHLTTNSLVCQWEPGPETHLPTSFILKSFRSRADCQYQGDTIPDCVAKKRQNNCSIPRKNLLLYQYMAIWVQAENMLGSSESPKLCLDPMDVVKLEPPMLQALDIGPDVVSHQPGCLWLSWKPWKPSEYMEQECELRYQPQLKGANWTLVFHLPSSKDQFELCGLHQAPVYTLQMRCIRSSLPGFWSPWSPGLQLRPTMKA”, the “soluble on expression in E. coli” value is reported as “soluble”.
In the case of “MQMLDRLESEILADRVSEESRRWLASCGLTVEQMKNQMDPVYTPARKIHLYHCDHRGLPLALISTEGATAWCAEYDEWGNLLSDENPHHLQQLIRLPGQQYDEESGLYYNRHRYYDPLLGRYITQDPIGLKGGWNFYQYPLNPVINVDPQGLVDINLYPESDLIHSVADEINIPGVFTIGGHGTPTSIESATRSIMTAKDLAYLIKFDGNYKDGMTVWLFSCNTGKGQNSFAS”, the “soluble on expression in E. coli” value is reported as “soluble”.
With “MAVAMDNAILENILRQVRPLIGQGKVADYIPALATVDGSRLGIAICTVDGQLFQAGDAQERFSIQSISKVLSLVVAMRHYSEEEIWQRVGKDPSGSPFNSLVQLEMEQGIPRNPFINAGALVVCDMLQGRLSAPRQRMLEVVRGLSGVSDISYDTVVARSEFEHSARNAAIAWLMKSFGNFHHDVTTVLQNYFHYCALKMSCVELARTFVFLANQGKAIHIDEPVVTPMQARQINALMATSGMYQNAGEFAWRVGLPAKSGVGGGIVAIVPHEMAIAVWSPELDDAGNSLAGIAVLEQLTKQLGRSVY” the “soluble on expression in E. coli” value was “soluble”.
For “MAHHHHHHMANDDPKEPQPAVLNPEVDQQDTSVNGDDGDAERDGGKDVPVFTPAGARVEVHPLVLLSLVDHYARVNAKVSQKRRVAGLLLGRHLSHPGGIQVLDINNSFAVPFDEDPQNPDVWFLDTNYAEEMFLMFRRVHPKVRIVGWYSAGPSCAVQPNDMLLHLLIADRFSLNPVYCIVNTDPNNKGVPVLAYTTVHGRDGARSLEFRNIPTHLGAEEAEEIGIEHLLRDLTDSTITTLSAQVQERELSLDHLGRVLQSIEEYLNDVAEGTMPISEDVLSVLQEVISLQPHIYHLKTSTDMVRHANDQAIAMFIAAIGRCVCTLYDVIANRRRIAREIQEVRARRERSLKEKLGNEQHKAKEAATEESRKEGAAKN”, the “soluble on expression in E. coli” value was “not soluble”.
For “MNWPLLYDMQRMLDRRIETEHGLMEEDLFARKQLAFLVELGELANETRCFKFWSIKPPAPAERVLEEYVDGLHFLLSLGLECGLFYEENEAPSAGRPLVEQFLAVFRAAERFGETRARGEYDALFAEYWRLGVALGFSSDDIEAAYRRKNEVNHKRQNERY”, the “soluble on expression in E. coli” value was “not soluble”.
With “MKKALTTRHPPIDVYCICREVTEVMEKLHAADAETIPLASNIQMVNMVNNYVIMSYGLLHDDYEYGAITESCRKDVLLLLRELFPRKIYLWEN” the “soluble on expression in E. coli” value was “soluble”.
In the case of “MGSDKIHHHHHHMNYSHFVGLDVGKKTFDASLMSADEKELSHKSFDNTPTGIQSLLDWIAGYHLSLSKLLFCAENMGSYVTELSVSSVSMGFSLALVCPLTIKKSIGLQRGKNDRIDAKRIANYAVLHYRKLELYKLPDKDLVRLRGWIIIRDNLVKQKVSSIKLLETFSWMAKLADVTESISFLEEQLKSIKERILEVEEDMEQLIAASTSLYTNYLLLRSIKGIGIINAIVLLCVTDNFQRFDNPRKFACYCGVAPFEHTSGISIRGKTQTSSLANKEVKVYLTRAAITAISWDPQMKAYYKRKIAEGKHKASVINAVRAKIIARSFAVIRRQTPFVTLAV”, the “soluble on expression in E. coli” value is reported as “not soluble”.
In the case of “MSLSGIFNWSLDVFADIYNTLKFESNIDLDTIDFTSIKNDLANVLITPVPLDQSRSKLGDASKPVALPSGDEVKLNQASIEITGVLSNELDLDELNTAELLYNASDLSYKKGTSIGDSARLAYYLRAHYILNIVGYLVSHKRLDIITNNNQVLFDNILKSFSKIYTLSGKLNDMIDKQKVTGDINNLAFINCINYSRSQLFNAHELLGQVVFGLADNYYESYGTLNNYKSLVEFILKNISDEDVFVIHFLPSTLQLFKKLLQLGEESLVDQFYKTITSSILKDYEANNFSKSEDIDLSKSKLSGFEIVTSFIFLTEFIPWCKQLSSRTAKYDFKDDILKYMEFLISYGVMERLLSYCSETANAKTQQVYDWSNMYDFRALLQKNFPRLTPAKFHYPGNQELLNAVRPGYENVSKLIDISFLTLDPSLNETLVSPFFQSFFSVFISNAAVVMTSLRDSEEDFVLSSLNESDEGHHHHHH”, the “soluble on expression in E. coli” value is reported as “soluble”.
With “GPGSMASKKQADGSKDIGDAAWREKLTTQEYRVLRQKATDPPFGAYNTHFETGTYHCAGCGTLLYKSSMKFPCECGWPAFFDCVPLAVREEPDSDGVRTEILCNACGGHLGHVFRGEGFNNPPPNERHCVNGTAIRFQSEK” the “soluble on expression in E. coli” value was “soluble”.
With “MRIKKKNTRGNARNFITRSQAVRKLQVSLADFRRLCIFKGIYPREPRNKKKANKGSTAPTTFYYAKDIQYLMHEPVLAKFREHKTFARKLTRALGRGEVSSAKRLEENRDSYTLDHIIKERYPSFPDAIRDIDDALNMLFLFSNLPSTNQVSSKIINDAQKICNQWLAYVAKERLVRKVFVSIKGVYYQANIKGEEVRWLVPFKFPENIPSDVDFRIMLTFLEFYSTLLHFVLYKLYTDSGLIYPPKLDLKKDKIISGLSSYILESRQEDSLLKLDPTEIEEDVKVESLDASTLKSALNADEANTDETEKEEEQEKKQEKEQEKEQNEETELDTFEDNNKNKGDILIQPSKYDSPVASLFSAFVFYVSREVPIDILEFLILSCGGNVISEAAMDQIENKKDIDMSKVTHQIVDRPVLKNKVAGRTYIQPQWIFDCINKGELVPANKYLPGEALPPHLSPWGDAIGYDPTAPVEEGEEEESESESESEDQVEEEDQEVVAGEEDDDDDEELQAQKELELEAQGIKYSETSEADKDVNKSKNKKRKVDEEEEEKKLKMIMMSNKQKKLYKKMKYSNAKKEEQAENLKKKKKQIAKQKAKLNKLDSKK” the “soluble on expression in E. coli” value was “soluble”.
For “TEFGSELKSFPEVVGKTVDQAREYFTLHYPQYNVYFLPEGSPVTRDLRYNRVRVFYNPGTNVVNHVPHVG”, the “soluble on expression in E. coli” value was “soluble”.
